What all share (assay): ELISA, scFv periplasmic extract on coated His6-GITR
(In general: ELISA stands for enzyme-linked immunosorbent assay.)

In one assay the target is T1, human His6-GITR (human, UniProt Q9Y5U5 26-162).
T1 construct: His6-tagged recombinant protein; also called hGITR-His; human GITR-His
T1 sequence: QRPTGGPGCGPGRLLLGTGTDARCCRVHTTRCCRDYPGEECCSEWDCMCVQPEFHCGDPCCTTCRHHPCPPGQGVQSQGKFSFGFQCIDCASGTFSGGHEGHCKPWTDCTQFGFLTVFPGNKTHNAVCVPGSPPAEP
The protocol:
(§1) The SuperHuman-2.0 scFv Antibody Library (available from Distributed Bio, South San Francisco, Calif.) was used to perform selection with human, cynomolgus or mouse GITR proteins. Selected phage clones from overnight growth were inoculated into wells in 96 well deep well plates containing 1 mL of medium. scFv expression was induced by addition of IPTG (Teknova) to a final concentration of 1 mM. Plates were grown overnight after induction. To prepare periplasmic extracts (PPE), the plates containing the phage clones were centrifuged at 2500 rpm for 10 min, the supernatant discarded and then pellets treated with 75 μL of cold periplasmic extract buffer with appropriate concentration of protease inhibitors (Complete Mini, EDTA-free -Roche Applied Biosciences—Cat No 1836170). After shaking at room temperature for 10 min, 225 μL of cold ddH2O with added protease inhibitor (1 tablet/50 mL) was added per well and mixed by pipetting up and down. PPE extraction was completed by incubation at room temperature for an additional 1 hr. The plates were then centrifuged at 4000 rpm for 20 minutes and 200 μL of PPE supernatant was collected from each well and transferred to a new plate which was then blocked with equal volume of 4% milk (2% final) to prepare blocked PPE extracts. In the meantime, Maxisorp plates (Nunc 442404) coated with relevant antigen (human, mouse or cynomolgus monkey His6-GITR) at 50 μl/well of 1 μg/mL antigen or 2% BSA in PBS as control were prepared for ELISA analyses. Next, 50 μL of each blocked PPE extract was transferred to the pre-blocked ELISA plates coated with the relevant antigens. After incubation and washing 3× with PBS, 50 μL of anti-V5 tag antibody (tag included in the phage display constructs, Invitrogen Cat No R960-25) at 1:5000 dilution in 2% milk was added and the plates were incubated for 1 hr. […] After further washing 3× with PBST, 50 μl/well of TMB substrate was added and the plates were developed until positive controls were visible. The reaction was stopped with 50 μl/well of 2N H2SO4. Plates were read at 450 nm to determine ELISA signal from bound PPE derived scFv.

Assay [1] addresses T2, cynomolgus monkey His6-GITR (cynomolgus monkey).
T2 construct: His6-tagged recombinant protein; also called cGITR-His; cyno GITR-His
T2 chain: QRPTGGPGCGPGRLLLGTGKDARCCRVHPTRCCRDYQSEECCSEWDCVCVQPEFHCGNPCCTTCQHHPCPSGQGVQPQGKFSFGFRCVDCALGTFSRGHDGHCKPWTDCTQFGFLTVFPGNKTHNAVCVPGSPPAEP
As for the experimental part:
as §1

Another assay addresses T3, mouse His6-GITR (mouse, UniProt O35714 20-153).
T3 construct: His6-tagged recombinant protein; also called mGITR-His; mouse GITR-His
T3 sequence: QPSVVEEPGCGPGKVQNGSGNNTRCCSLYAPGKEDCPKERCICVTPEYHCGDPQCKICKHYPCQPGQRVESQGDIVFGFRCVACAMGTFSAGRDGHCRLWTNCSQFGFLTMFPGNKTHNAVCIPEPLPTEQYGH
The protocol:
as §1

Substitutions are numbered along the chain they refer to.

B1: GITR-Mab-37 scFv (scFv, V domains shown)
VH: QVQLVQSGAEVKKPGASVKVSCKASGYTFTSYYMHWVRQAPGQGLEWMGWINPNSGGTNYAQKFQGRVTMTRDTSTSTVYMELSSLRSEDTAVYYCASPGDYCSGGSCYSDDAFDIWGQGTMVTVSS
VL: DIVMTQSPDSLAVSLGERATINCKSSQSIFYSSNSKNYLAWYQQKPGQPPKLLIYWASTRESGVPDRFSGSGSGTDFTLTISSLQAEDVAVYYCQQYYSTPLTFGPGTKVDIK
notes: scFv in periplasmic extract, V5 tag
Take B1: the hGITR-His/BKG with human His6-GITR is 13.2 fold over background. The same molecule showed a cGITR-His/BKG in assay [1] of 11.7 fold over background. This molecule gave a mGITR-His/BKG with mouse His6-GITR of 13.7 fold over background.

B2: GITR-Mab-36 scFv (scFv, V domains shown)
VH: QVQLVQSGAEVKKPGASVKVSCKASGYTFTRNYIHWVRQAPGQGLEWMGWINPKSGGTKYAQKFQGRVTMTRDTSTSTVYMELSSLRSEDTAVYYCARESGVVATEYWYFDLWGRGTLVTVSS
VL: not shown
notes: as for B1
B2 registered a hGITR-His/BKG with human His6-GITR of 8.8 fold over background. In assay [1], this molecule gave a cGITR-His/BKG of 1.4 fold over background. In the assay with mouse His6-GITR, this molecule had a mGITR-His/BKG of 0.9 fold over background.

B3: GITR-Mab-34 scFv (scFv, V domains shown)
VH: EVQLLESGGGLVQPGGSLRLSCAASGFTFSSYWMHWVRQAPGKGLEWVSVISNSGGATYYADSVKGRFTISRDNSKNTLYLQMNSLRAEDTAVYYCAREGWGYGMDVWGQGTTVTVSS
VL: DIQMTQSPSSLSASVGDRVTITCRASQDIRNYLAWYQQKPGKAPKLLIYTASTLQSGVPSRFSGSGSGTDFTLTISSLQPEDFATYYCQQTFRTPLTFGGGTKVEIK
notes: as for B1
Turning to B3, the hGITR-His/BKG with human His6-GITR worked out at 7.7 fold over background. The molecule further showed a cGITR-His/BKG in assay [1] of 1.1 fold over background. This molecule also gave a mGITR-His/BKG with mouse His6-GITR of 1.2 fold over background.

B4: GITR-Mab-33 scFv (scFv, V domains shown)
VH: EVQLLESGGGLVKPGGSLRLSCAASGFMFSSYSMNWVRQAPGKGLEWVSYISGNSGYTNYADSVKGRFTISRDDSKNTLYLQMNSLKTEDTAVYYCARRLHGMDVWGQGTTVTVSS
VL: DIQMTQSPSSLSASVGDRVTITCRASQSISTWLAWYQQKPGKAPKLLIYDASNLETGVPSRFSGSGSGTDFTLTISSLQPEDFATYYCQQAYRFPVAFGGGTKVEIK
notes: as for B1
In turn, B4 had a hGITR-His/BKG with human His6-GITR of 17.7 fold over background. In assay [1], this molecule had a cGITR-His/BKG of 1.3 fold over background. In the assay with mouse His6-GITR, this molecule gave a mGITR-His/BKG of 1 fold over background.

B5: GITR-Mab-4 scFv (scFv, V domains shown)
VH: EVQLLESGGGLVQPGGSLRLSCAASGFTFSSYDMHWVRQAPGKGLEWVSAISSSGGSIYYADSVKGRFTISRDNSKNTLYLQMNSLRAEDTAVYYCARDSVVVPKGPNRKYYYYGMDVWGQGTKVTVSS
VL: not shown
notes: as for B1
On to B5, for which the hGITR-His/BKG in the assay with human His6-GITR was 9.6 fold over background. The same molecule gave a cGITR-His/BKG in assay [1] of 10.3 fold over background. This molecule also returned a mGITR-His/BKG with mouse His6-GITR of 16.1 fold over background.

B6: GITR-Mab-32 scFv (scFv, V domains shown)
VH: QVQLVQSGAEVKKPGASVKVSCKASGGTFSSYAISWVRQAPGQGLEWMGWMNPNSGDTGYAQKFQGRVTMTRDTSTSTVYMELSSLRSEDTAVYYCARGPWYFDLWGRGTLVTVSS
VL: DIQMTQSPSSLSASVGDRVTITCRVSQGISNSLAWYQQKPGKAPKLLIYAASSLQSGVPSRFSGSGSGTDFTLTISSLQPEDFATYYCQQSYSTVYTFGQGTKLEIK
notes: as for B1
In turn, B6 showed a hGITR-His/BKG in the assay with human His6-GITR of 18 fold over background. Moreover, the cGITR-His/BKG in assay [1] was determined as 4.9 fold over background. Moreover, in the assay with mouse His6-GITR, the mGITR-His/BKG amounted to 1 fold over background.

B7: GITR-Mab-38 scFv (scFv, V domains shown)
VH: QVQLVQSGAEVKKPGASVKVSCKASGGTFRNYAINWVRQAPGQGLEWMGWMNPNSGNTGYAQKFQGRVTMTRDTSTSTVYMELSSLRSEDTAVYYCAREDVDTASQAYFDYWGQGTLVTVSS
VL: B6 VL with V25A, S32Y, A50S, S53N, S91G, T94S, V95R
notes: as for B1
As to B7, the hGITR-His/BKG with human His6-GITR turned out to be 2.9 fold over background.

B8: GITR-Mab-29 scFv (scFv, V domains shown)
VH: QVQLVQSGAEVKKPGASVKVSCKASGYTFSSDYIHWVRQAPGQGLEWMGRINPSGGSTLYARRFQGRVTMTRDTSTSTVYMELSSLRSEDTAVYYCARERGAADTWYFDLWGRGTLVTVSS
VL: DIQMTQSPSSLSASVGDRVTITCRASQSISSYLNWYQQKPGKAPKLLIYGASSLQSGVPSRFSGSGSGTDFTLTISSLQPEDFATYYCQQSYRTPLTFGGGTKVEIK
notes: as for B1
In the assay with human His6-GITR, B8 gave a hGITR-His/BKG of 12.4 fold over background. In assay [1], this molecule displayed a cGITR-His/BKG of 1.1 fold over background. This molecule came in with a mGITR-His/BKG with mouse His6-GITR of 1 fold over background.

B9: GITR-Mab-30 scFv (scFv, V domains shown)
VH: QVQLVQSGAEVKKPGASVKVSCKASGGTFSSYAISWVRQAPGQGLEWMGIIDPTGGATAYAQEFQGRVTMTRDTSTSTVYMELSSLRSEDTAVYYCARVGYYYGMDVWGQGTMVTVSS
VL: not shown
notes: as for B1
B9 gave a hGITR-His/BKG with human His6-GITR of 18.7 fold over background. Further, in assay [1], the cGITR-His/BKG amounted to 1 fold over background. In the assay with mouse His6-GITR, this molecule registered a mGITR-His/BKG of 1 fold over background.

B10: GITR-Mab-45 scFv (scFv, V domains shown)
VH: QVQLVQSGAEVKKPGASVKVSCKASGYTFTSYGISWVRQAPGQGLEWMGWMNPNSGNTGYAQKFQGRVTMTRDTSTSTVYMELSSLRSEDTAVYYCAREVYGDLDYWGQGTLVTVSS
VL: DIQMTQSPSSLSASVGDRVTITCRASQGIDNWLAWYQQKPGKAPKLLIYGASTLQSGVPSRFSGSGSGTDFTLTISSLQPEDFATYYCQQSYTARFTFGPGTKVDIK
notes: as for B1
Molecule B10 displayed a hGITR-His/BKG in the assay with human His6-GITR of 1.4 fold over background. In addition, the mGITR-His/BKG with mouse His6-GITR amounted to 4.5 fold over background.

B11: GITR-Mab-27 scFv (scFv, V domains shown)
VH: QVQLVQSGAEVKKPGASVKVSCKASGYTFTSYDINWVRQAPGQGLEWIGWMNTNSGDTGYAQKFQGRVTMTRDTSTSTVYMELSSLRSEDTAVYYCARQAYSSSWYWYGWFDPWGQGTLVTVSS
VL: DIQMTQSPSSLSASVGDRVTITCQASHDIDNYLNWYQQKPGKAPKLLIYAASNLQSGVPSRFSGSGSGTDFTLTISSLQPEDFATYYCQQANSFPLTFGPGTKVDIK
notes: as for B1
As to B11, the hGITR-His/BKG with human His6-GITR was found to be 24.6 fold over background. This molecule displayed a cGITR-His/BKG in assay [1] of 1 fold over background. In addition, the mGITR-His/BKG in the assay with mouse His6-GITR was 1.3 fold over background.

B12: GITR-Mab-35 scFv (scFv, V domains shown)
VH: QVQLVQSGAEVKKPGASVKVSCKASGYTFTNYYMHWVRQAPGQGLEWMGLITPSGGRTKYAQKFQGRVTMTRDTSTSTVYMELSSLRSEDTAVYYCAREMEYSSSWYWFDPWGQGTLVTVSS
VL: B3 VL with R24Q, D28G, R30S, N31S, A34N, T50A, T91S, F92Y, R93S
notes: as for B1
In the assay with human His6-GITR, B12 yielded a hGITR-His/BKG of 25.3 fold over background. In assay [1], this molecule gave a cGITR-His/BKG of 0.9 fold over background. In addition, the mGITR-His/BKG in the assay with mouse His6-GITR was 0.9 fold over background.

B13: GITR-Mab-1 scFv (scFv, V domains shown)
VH: QVQLVQSGAEVKKPGASVKVSCKASGYTFTNYHLHWVRQAPGQGLEWMGMINPNDGSTTYAQKFQGRVTMTRDTSTSTVYMELSSLRSEDTAVYYCARSTYYYDSSGYYYYYYGMDVWGQGTTVTVSS
VL: EIVMTQSPATLSVSPGERATLSCRASQSVYSNYLAWYQQKPGQAPRLLIYGASTRATGIPARFSGSGSGTEFTLTISSLQSEDFAVYYCQQYHSYPLTFGGGTKVEIK
notes: as for B1
As for B13, the hGITR-His/BKG in the assay with human His6-GITR amounted to 13.2 fold over background. Further, in assay [1], the cGITR-His/BKG is 15.8 fold over background. Also, the mGITR-His/BKG in the assay with mouse His6-GITR is 1.1 fold over background.

B14: GITR-Mab-31 scFv (scFv, V domains shown)
VH: QVQLVQSGAEVKKPGSSVKVSCKASGGTFSSYAISWVRQAPGQGLEWMGGIIPISSATSIPQKFQGRVTITADESTSTAYMELSSLRSEDTAVYYCARSYDSRYYGMDVWGQGTTVTVSS
VL: B13 VL with S28T, Y30G, N32R, H93Y, Y95T, L97W, G101Q, K104R, V105L
notes: as for B1
In the case of B14, the hGITR-His/BKG in the assay with human His6-GITR was 17.7 fold over background. Moreover, the cGITR-His/BKG in assay [1] turned out to be 1.2 fold over background. In the assay with mouse His6-GITR, this molecule came in with a mGITR-His/BKG of 1.2 fold over background.

B15: GITR-Mab-28 scFv (scFv, V domains shown)
VH: QVQLVQSGAEVKKPGASVKVSCKASGYTFPNYGITWVRQAPGQGLEWMGWMNPNSGYTGYAQNFQGRVTMTRDTSTSTVYMELSSLRSEDTAVYYCARGMPGRGFDPWGQGTLVTVSS
VL: B13 VL with Y30S, S94T, L97P, G101Q, V105L
notes: as for B1
B15 gave a hGITR-His/BKG with human His6-GITR of 11.5 fold over background. In assay [1], this molecule registered a cGITR-His/BKG of 1 fold over background. Further, the mGITR-His/BKG in the assay with mouse His6-GITR worked out at 1 fold over background.
